Results from PMC7343985.

What was measured:
[1] = molecular target: Human fibronectin purified from plasma (human); assay: single-cell force spectroscopy (AFM); single bacterium on a polydopamine colloidal probe against Fn-coated gold substrates in PBS, room temperature, applied force 250 pN, approach and retraction 1,000 nm/s, contact time 100 ms
[2] = molecular target: Human fibronectin purified from plasma (human); assay: single-molecule force spectroscopy (AFM); AFM tips functionalized with Fn (EDC/NHS) against bacteria immobilised on polystyrene, PBS, room temperature, applied force 250 pN, approach and retraction 1,000 nm/s, contact time 100 ms
[3] = molecular target: SpsL_(538-823) (R domain, repetitive region of SpsL) (Staphylococcus pseudintermedius ED99); assay: SPR; Biacore X100; SpsD520-846 or SpsL538-823 covalently immobilised on CM5 chips; 2-fold dilution series of Fn in PBS with 0.005% Tween 20, 30 ul/min, 22°C; steady-state response fitted to the Langmuir equation (one-site model)
[4] = molecular target: SpsD_(520-846) (C domain, connecting region of SpsD) (Staphylococcus pseudintermedius ED99); assay: as above
[5] = molecular target: Human fibronectin purified from plasma (human); assay: single-molecule force spectroscopy (AFM), dynamic force spectroscopy; Fn tips against immobilised bacteria, PBS, room temperature; retraction speeds 0.5, 1, 3, 5 and 10 um/s to vary the loading rate

SpsL on the surface of S. pseudintermedius ED99 spsD mutant cells (natural protein)
adhesion force (3 cells) [1]: 168 pN
frequency of adhesive force curves [1]: 66%
adhesion force (3 cells) [2]: 158 pN

Human fibronectin purified from plasma (natural protein)
Kd [3]: 50 nM
Kd [4]: 1.2 nM

SpsD on the surface of S. pseudintermedius ED99 spsL mutant cells (natural protein)
adhesion force (cell 1) [1]: 1440 pN
adhesion force (cell 2) [1]: 1750 pN
adhesion force (cell 3) [1]: 1540 pN
unbinding force (cell 1) [2]: 1500 pN
unbinding force (cell 2) [2]: 1700 pN
unbinding force (cell 3) [2]: 1820 pN
bond strength at low tensile force [5]: 0.25 nN
bond strength under mechanical tension [5]: 2 nN
